T1: Soluble CD19 protein (amino acids 20-291) (UniProt P15391 20-291)
T1 construct: range 20-291; Analyte in SPR, 300 nM to 4.69 nM; also called cognate ligand CD19
T1 sequence (looked up): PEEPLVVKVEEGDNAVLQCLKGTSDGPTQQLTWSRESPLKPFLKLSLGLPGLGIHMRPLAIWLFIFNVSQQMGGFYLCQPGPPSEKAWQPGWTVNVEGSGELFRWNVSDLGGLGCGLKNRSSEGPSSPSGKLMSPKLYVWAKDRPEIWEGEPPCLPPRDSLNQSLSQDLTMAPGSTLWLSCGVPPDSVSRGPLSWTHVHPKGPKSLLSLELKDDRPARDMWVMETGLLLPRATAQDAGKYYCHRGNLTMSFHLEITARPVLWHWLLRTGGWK


Molecular target: T1, Soluble CD19 protein (amino acids …)
Assay: SPR (Biacore T200), antibody captured on Protein A chip, soluble CD19 as analyte
Procedure: All SPR experiments were performed on a Biacore T200 (PCytiva) with HBS-EP as running buffer. The antibodies were captured by Protein A chip (LOT #10309880, Cytiva). Soluble CD19 protein (amino acids 20-291) was used as the analyte at concentrations ranging from 300 nM to 4.69 nM through the flow cells for 120 seconds followed by dissociation analysis for 300 seconds. Association rates (Kon), dissociation rates (Koff) and the constant Ka (Kon/Koff) were fitted to the results.

Row | binding result | Binder
1 | binds | Antibody comprising scFv-2 fused with human IgG1 Fc fragment (Fc fusion, scFv fused with human IgG1 Fc; not shown: human IgG1 Fc fragment) DIQMTQTTSSLSASLGDRVTISCRASQDISKYLNWYQQRPDGTVKLLIYHTSRLHSGVPSRFSGSGSGTDYSLTISNLEPEDIATYFCQQGNTLPYTFGGGTKLEITGSTSGSGKPGSGEGSTKGEVKLQESGPGLVAPSQSLSVTCTVSGVSLPDYGVSWIRQPPRKGLEWLGVIWGSETTYYNSALKSRLTIIKDNSKSQVFLKMNSLQTDDTAIYYCAKHYYYGGSYAMDYWGQGTSVTVSS
2 | binds | Antibody comprising scFv-1 fused with human IgG1 Fc fragment (Fc fusion, scFv fused with human IgG1 Fc; not shown: human IgG1 Fc fragment) DIQMTQTTSSLSASLGDRVTISCRASQDISKYLNWYQQRPDGTVKLLIYHTSRLHSGVPSRFSGSGSGTDYSLTISNLEPEDIATYFCQQGNTLPYTFGSGTRLEITGSTSGSGKPGSGEGSTKGEVKLQESGPGLVAPSQSLSVTCTVSGVSLPDYGVSWIRQPPRKGLEWLGVIWGSETTYYNSALKSRLTIIKDNSKSQVFLKMNSLQTDDTAIYYCAKHYYYGGSYAMDYWGQGTSVTVSS

Source: patent US20260265374A1 (JW THERAPEUTICS R AND D SHANGHAI, published 2026)
